The text below walks through data of patent US5945329A, “Customized proteases” (Carlsberg A/S, priority 1997, dated 1999).

Where a chain is given by its changes, count along the chain named.

Experiment [1] deals with T1, yeast carboxypeptidase Y (CPD-Y), wild type (SEQ ID NO:32) (Saccharomyces cerevisiae, UniProt P00729).
T1 construct: purchased Carlbiotech, Copenhagen, Denmark
T1 sequence (P00729 112-532): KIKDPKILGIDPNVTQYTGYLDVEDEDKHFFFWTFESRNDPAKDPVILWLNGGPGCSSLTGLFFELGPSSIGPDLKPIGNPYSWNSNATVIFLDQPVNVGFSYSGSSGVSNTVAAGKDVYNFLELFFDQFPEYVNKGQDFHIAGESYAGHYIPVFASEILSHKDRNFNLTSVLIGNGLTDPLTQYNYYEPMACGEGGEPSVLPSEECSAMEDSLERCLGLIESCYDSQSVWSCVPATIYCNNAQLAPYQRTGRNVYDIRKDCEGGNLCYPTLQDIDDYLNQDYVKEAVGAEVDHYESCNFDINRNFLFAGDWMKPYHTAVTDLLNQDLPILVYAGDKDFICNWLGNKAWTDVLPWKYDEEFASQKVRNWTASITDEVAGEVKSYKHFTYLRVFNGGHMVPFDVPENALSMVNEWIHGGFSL
Nature of the experiment: Aminolysis of ester/peptide substrates; KN(app) of nucleophile. The note with it: Table VI; substance of the line is the substrate (leaving group varied), pH 7.5. The format is biochemical. Here is the method: (§1) Aminolysis reactions were carried out in the following way. The nucleophile was dissolved in 50 mM Hepes, 5 mM EDTA and pH was adjusted to 7.5. Five (5) μl of substrate (8 mM FA-Ala-OBzl in methanol) was added to 190 μl nucleophile solution followed by 5 μl enzyme, resulting in a substrate concentration of 0.2 mM. For reactions carried out at pH 9.5, Hepes was replaced with Ches. During the reaction, 20 μl aliquots were removed from the reaction mixture and added to 50 μl 1% trifluoroacetic acid to quench the reaction. The reactant composition was determined by HPLC using a Waters HPLC equipped with a C-18 Waters Novapac 4μ reverse phase column and various gradients of acetonitrile in 0.1% trifluoroacetic acid. The separation was monitored at 302 nm allowing the direct quantification of the products from the integrated peak areas. The composition of the reaction mixture was determined at least twice during the reaction, the first time when 20-50% (preferably 35%) of the ester substrate had been consumed in the reaction and the second time when 50-90% (preferably 80%) of the substrate had been consumed. The products were collected and identified by amino acid analysis after acid hydrolysis using a Pharmacia Alpha Plus analyzer.
(§2) Further identification was obtained by co-chromatography of authentic standard compounds. The fraction of aminolysis (fa) was expressed as the ratio between the formed aminolysis product and the sum of all products being formed, i.e., unconsumed substrate was disregarded in the calculations. The KN(app), representing the nucleophile concentration at which fa is half the maximum value (a measure for the dissociation constant of the nucleophile), and famax (the highest possible fa obtained at saturation of the enzyme with nucleophile) were determined by fitting the values of fa obtained at a minimum of seven concentrations of nucleophile to a saturation. The value of fa obtained at the highest possible nucleophile concentration is designated fasat.
(§3) Aminolysis reactions were carried out in the following way. The nucleophile was dissolved in 50 mM HEPES, 5 mM EDTA and pH was adjusted to 7.5, 5 μl substrate (8 mM FA-Ala-OBzl or FA-Ala-Xaa-OH in methanol) was added to 190 μl nucleophile solution followed by 5 μl enzyme diluted in buffer to the appropriate concentration, resulting in a substrate concentration of 0.2 mM. During the reaction, 20 μl aliquots were removed from the reaction mixture and added to 50 μl 1% trifluoroacetic acid to quench the reaction. The reactant composition was determined by HPLC using a Waters HPLC equipped with a C-18 Waters Novapac 4μ reverse phase column and various gradients of acetonitrile in 0.1% trifluoroacetic acid. The separation was monitored at 302 nm allowing the direct quantification of the products from the integrated peak areas. The products were collected and identified by amino acid analysis after acid hydrolysis (Pharmacia Alpha Plus analyzer) and by co-chromatography of authentic standards. The fraction of aminolysis (fa) was expressed as the ratio between the formed aminolysis product and the sum of all products being formed, i.e. unconsumed substrate was disregarded in the calculations. The KN,app (a measure for the dissociation constant of the nucleophile) and famax (the highest possible fa obtained at saturation with nucleophile were determined by fitting the obtained fa values to the equation fa=famax /(1+KN,app /N).

For experiment [2], the target named is T2, carboxypeptidase Y (CPD-Y) variant N51S (Asn51 replaced with serine) (Saccharomyces cerevisiae, UniProt P00729, N162S).
T2 construct: made in house; host or cells: S. cerevisiae W2579 (secreted)
T2 sequence (P00729 112-532 N162S): T1 sequence (P00729 112-532) with N51S
In words: Aminolysis; KN(app) of nucleophile. The format is biochemical, yeast. The note with it: Table VI; substance of the line is the substrate (leaving group varied), pH 7.5. Here is the method: as §1, §2, §3

For experiment [3], the target named is T3, carboxypeptidase Y (CPD-Y) variant N51Q (Asn51 replaced with glutamine) (Saccharomyces cerevisiae, UniProt P00729, N162Q).
T3 construct: made in house; host or cells: S. cerevisiae W2579 (secreted)
T3 sequence (P00729 112-532 N162Q): T1 sequence (P00729 112-532) with N51Q
Nature of the experiment: Aminolysis; KN(app) of nucleophile. The note with it: Table VI; substance of the line is the substrate (leaving group varied), pH 7.5. It counts as biochemical, yeast. Here is the method:
as §1, §2, §3

Experiment [4] addresses T4, carboxypeptidase Y (CPD-Y) variant E65A (Glu65 replaced by alanine) (Saccharomyces cerevisiae, UniProt P00729, E176A).
T4 construct: made in house; host or cells: S. cerevisiae W2579 (secreted)
Nature of the experiment: Aminolysis; KN(app) of nucleophile. It counts as biochemical, yeast. The note with it: Table VI; substance of the line is the substrate (leaving group varied), pH 7.5. Here is the method:
as §1, §2, §3

Experiment [5] has as its target T5, carboxypeptidase Y (CPD-Y) variant E145A (Glu145 replaced by alanine) (Saccharomyces cerevisiae, UniProt P00729, E256A).
T5 construct: made in house; host or cells: S. cerevisiae W2579 (secreted)
Nature of the experiment: Aminolysis; KN(app) of nucleophile. The format is biochemical, yeast. The note with it: Table VI; substance of the line is the substrate (leaving group varied), pH 7.5. Here is the method:
as §1, §2, §3

The target in experiment [6] is T1, yeast carboxypeptidase Y (CPD-Y), wild type (SEQ ID NO:32). Nature of the experiment: Hydrolysis of FA-Phe-Val-OH. The format is biochemical.
In experiment [7] the target is FA-Phe-Val-OH.
In experiment [8] the target is FA-Ala-Leu-OH.
Experiment [9] deals with FA-Ala-Ala-OH.
Experiment [10] addresses FA-Ala-Phe-OH.
In experiment [11] the target is FA-Ala-Val-OH.
Experiment [12] addresses CBZ-Pro-Leu-OH.
Experiment [13] addresses CBZ-Gly-Leu-OH.
The target of experiment [14] is CBZ-His-Leu-OH.
Experiment [15] addresses CBZ-Trp-Leu-OH.
The target of experiment [16] is FA-Ala-Arg-OH.
The target of experiment [17] is FA-Ala-Lys-OH.
Experiment [18] addresses FA-Ala-Gln-OH.
Experiment [19] has as its target CBZ-Ala-Leu-OH.
For experiment [20], the target named is CBZ-Ser-Leu-OH.
In experiment [21] the target is CBZ-Lys-Leu-OH.
The target in experiment [22] is CBZ-Phe-Leu-OH.
The target of experiment [23] is CBZ-Glu-Leu-OH.

T4 sequence (P00729 112-532 E176A): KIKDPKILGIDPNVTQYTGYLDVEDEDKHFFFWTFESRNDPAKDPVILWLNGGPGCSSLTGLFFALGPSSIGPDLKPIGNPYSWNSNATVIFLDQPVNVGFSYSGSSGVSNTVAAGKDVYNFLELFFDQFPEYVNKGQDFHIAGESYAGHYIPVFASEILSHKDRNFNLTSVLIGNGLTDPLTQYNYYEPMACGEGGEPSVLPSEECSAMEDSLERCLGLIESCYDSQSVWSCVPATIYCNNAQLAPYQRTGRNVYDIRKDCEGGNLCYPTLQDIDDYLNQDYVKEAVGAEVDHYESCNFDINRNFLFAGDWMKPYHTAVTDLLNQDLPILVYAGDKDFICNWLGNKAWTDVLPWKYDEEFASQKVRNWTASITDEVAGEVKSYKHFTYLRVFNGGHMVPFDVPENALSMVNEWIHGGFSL
T5 sequence (P00729 112-532 E256A): as the sequence (P00729 112-532 E176A) above, with A65E, E145A counted along it

For `C[C@H](NC(=O)[C@H](C)NC(=O)C=Cc1ccco1)C(=O)O` [FA--Ala--Ala--OH, FA-Ala-Ala-OH], the “Kn,app (H-Val-NH2 as nucleophile)” value is 1.8 ± 0.1 mM in experiment [1], 1.9 ± 0.1 mM in experiment [2], 3.1 ± 0.1 mM in experiment [3] and 5.2 ± 0.5 mM in experiment [4].

With `C[C@H](NC(=O)C=Cc1ccco1)C(=O)OCc1ccccc1` [FA--Ala--OBzl, FA-Ala-OBzl], the “Kn,app (H-Val-NH2 as nucleophile)” value in experiment [1] was found to be 1.7 ± 0.1 mM; in experiment [2] it was 1.6 ± 0.1 mM; in experiment [3], 3.1 ± 0.4 mM; in [4], 4.2 ± 0.01 mM; in experiment [5], 3.4 ± 0.4 mM.

`CC(C)[C@H](NC(=O)[C@H](C)NC(=O)C=Cc1ccco1)C(=O)O` [FA--Ala--Val--OH, FA-Ala-Val-OH]: the “Kn,app (H-Val-NH2 as nucleophile)” value was 1.5 ± 0.1 mM in experiment [1]; 1.8 ± 0.1 mM in [2]; 2.4 ± 0.1 mM in experiment [3]; 5.7 ± 0.3 mM in experiment [4]; 4.2 ± 0.2 mM in [5].

For `CC(C)[C@H](NC(=O)[C@H](Cc1ccccc1)NC(=O)C=Cc1ccco1)C(=O)O` [FA-Phe-Val-OH], in experiment [6], the kcat (in general, the maximal rate divided by the concentration of active sites) turned out to be 108.3 s⁻¹ and the “kcat /KM” value turned out to be 2.33333e+06 M⁻¹ s⁻¹.

For carboxypeptidase Y (enzyme), in experiment [7], the kcat/KM of hydrolysis was 2.33e+06 M⁻¹ s⁻¹. Also, the famax of transpeptidation (nucleophile H-Val-NH2) in experiment [8] worked out at 0.16; in experiment [9], 0.94; in experiment [10], 0.06; in experiment [11] it was 0.22; in [16] it was 1. Moreover, the estimated CPD-Y activity relative to wild type transformants (fold of wild type) in experiment [12], in [13], in experiment [14] and in experiment [15] was 1 each time. For the same molecule, the figures for the famax of transpeptidation (nucleophile H-Gly-NH2) in experiment [17] and in [18] were 0.99 and 0.93, respectively. Also, the kcat/Km of hydrolysis in [19] stood at 600000 M⁻¹ s⁻¹; in experiment [20], 200000 M⁻¹ s⁻¹; in [21], 400 M⁻¹ s⁻¹; in experiment [22] it was 6.33e+06 M⁻¹ s⁻¹; in [23], 7330 M⁻¹ s⁻¹.
